Our source for the Peptide exchange values is patent US20210340217A1, “NOVEL PEPTIDES AND COMBINATION OF PEPTIDES FOR USE IN IMMUNOTHERAPY AGAINST OVARIAN CANCER AND OTHER CANCERS” (Immatics Biotechnologies GmbH, priority 2017, published 2021).

This experiment concerns the target HLA-B*07:02 (Homo sapiens, UniProt P01889). Kind of experiment: MHC binding assay (UV-ligand exchange, beta2m ELISA). Conditions: peptide exchange yield. The text has this: Candidate peptides for T cell based therapies according to the present invention were further tested for their MHC binding capacity (affinity). The individual peptide-MHC complexes were produced by UV-ligand exchange, where a UV-sensitive peptide is cleaved upon UV-irradiation, and exchanged with the peptide of interest as analyzed. Only peptide candidates that can effectively bind and stabilize the peptide-receptive MHC molecules prevent dissociation of the MHC complexes. To determine the yield of the exchange reaction, an ELISA was performed based on the detection of the light chain (β2m) of stabilized MHC complexes. The assay was performed as generally described in Rodenko et al. (Rodenko et al., 2006).
96 well MAXISorp plates (NUNC) were coated over night with 2 ug/ml streptavidin in PBS at room temperature, washed 4× and blocked for 1 h at 37° C. in 2% BSA containing blocking buffer. Refolded HLA-A*02:01/MLA-001 monomers served as standards, covering the range of 15-500 ng/ml. Peptide-MHC monomers of the UV-exchange reaction were diluted 100-fold in blocking buffer. Samples were incubated for 1 h at 37° C., washed four times, incubated with 2 ug/ml HRP conjugated anti-β2m for 1h at 37° C., washed again and detected with TMB solution that is stopped with […]. Absorption was measured at 450 nm. Candidate peptides that show a high exchange yield (preferably higher than 50%, most preferred higher than 75%) are generally preferred for a generation and production of antibodies or fragments thereof, and/or T cell receptors or fragments thereof, as they show sufficient avidity to the MHC molecules and prevent dissociation of the MHC complexes.
Turning to “302 (RVEEVRALL; listed as Homo sapiens) [compound 302]”, the Peptide exchange entry is recorded as ““+++” (>50 = +++)”.
Turning to “41 (RVRSRISNL; listed as Homo sapiens) [compound 41]”, the Peptide exchange entry is ““+++” (>50 = +++)”.
As to “309 (FPQSQYPQY; listed as Homo sapiens) [compound 309]”, the Peptide exchange result is recorded as ““++++” (>75% = ++++)”.
With “120 (RPAMNYDKL; listed as Homo sapiens) [compound 120]” the entry was ““++” (>20% = ++)”.
“363 (TAKTPDATF; listed as Homo sapiens) [compound 363]”: the Peptide exchange entry was ““++” (>20% = ++)”.
To “375 (AAASPLLLL; listed as Homo sapiens) [compound 375]” belongs ““++” (>20% = ++)”.
For “303 (LPMWKVTAF; listed as Homo sapiens) [compound 303]”, the Peptide exchange result is reported as ““+++” (>50 = +++)”.
In the case of “298 (YPTEHVQF; listed as Homo sapiens) [compound 298]”, the Peptide exchange result is recorded as ““++” (>20% = ++)”.
With “131 (APTEDLKAL; listed as Homo sapiens) [compound 131]” the entry was ““+++” (>50 = +++)”.
Take “377 (RPRSPAGQVAAA; listed as Homo sapiens) [compound 377]”: the Peptide exchange result is listed as ““+++” (>50 = +++)”.
On to “346 (LPWDTSTTLF; listed as Homo sapiens) [compound 346]”, for which the Peptide exchange entry was ““+++” (>50 = +++)”.
“306 (APVIFSHSA; listed as Homo sapiens) [compound 306]”: the Peptide exchange entry is ““++” (>20% = ++)”.
For “360 (SPSVSSNTY; listed as Homo sapiens) [compound 360]”, the Peptide exchange result is ““++” (>20% = ++)”.
With “311 (RPLFYVVSL; listed as Homo sapiens) [compound 311]” the entry was ““++” (>20% = ++)”.
Take “332 (FPHSEMTTL; listed as Homo sapiens) [compound 332]”: the Peptide exchange result was ““+++” (>50 = +++)”.
“134 (RPIVPGPLL; listed as Homo sapiens) [compound 134]”: the Peptide exchange entry was ““+++” (>50 = +++)”.
To “147 (APRWFPQPTVV; listed as Homo sapiens) [compound 147]” belongs ““+++” (>50 = +++)”; to “342 (LPLGTSMTF; listed as Homo sapiens) [compound 342]”, ““+++” (>50 = +++)”.
As for “122 (YPGFPQSQY; listed as Homo sapiens) [compound 122]”, the Peptide exchange result is given as ““++” (>20% = ++)”.
Consider “335 (HPDPVGPGL; listed as Homo sapiens) [compound 335]”, for which the Peptide exchange result is listed as ““++” (>20% = ++)”.
On to “312 (LPYFREFSM; listed as Homo sapiens) [compound 312]”, for which the Peptide exchange entry is on record as ““+++” (>50 = +++)”.
For the substance “142 (TPGLRETSI; listed as Homo sapiens) [compound 142]”, the Peptide exchange entry is given as ““++” (>20% = ++)”.
Turning to “322 (SPDPSKHLL; listed as Homo sapiens) [compound 322]”, the Peptide exchange result is recorded as ““++” (>20% = ++)”.
With “369 (FPHSEMTTV; listed as Homo sapiens) [compound 369]” the entry was ““+++” (>50 = +++)”.
Regarding “328 (EPVTSSLPNF; listed as Homo sapiens) [compound 328]”, the Peptide exchange entry is ““++” (>20% = ++)”.
Turning to “351 (NVLTSTPAF; listed as Homo sapiens) [compound 351]”, the Peptide exchange result was ““++” (>20% = ++)”.
For “300 (IPMAAVKQAL; listed as Homo sapiens) [compound 300]”, the Peptide exchange result was ““+++” (>50 = +++)”.
For “333 (FPHSEMTTVM; listed as Homo sapiens) [compound 333]”, the Peptide exchange entry was ““+++” (>50 = +++)”.
In the case of “389 (SPGAQRTFFQL; listed as Homo sapiens) [compound 389]”, the Peptide exchange entry is ““+++” (>50 = +++)”.
For the substance “339 (LPAGTTGSLVF; listed as Homo sapiens) [compound 339]”, the Peptide exchange entry is ““+++” (>50 = +++)”.
With “135 (RVRSTISSL; listed as Homo sapiens) [compound 135]” the entry was ““+++” (>50 = +++)”; with “367 (TPSVVTEGF; listed as Homo sapiens) [compound 367]”, ““++” (>20% = ++)”; with “383 (TPTKETVSL; listed as Homo sapiens) [compound 383]”, ““+++” (>50 = +++)”.
As for “341 (LPLDTSTTL; listed as Homo sapiens) [compound 341]”, the Peptide exchange result is listed as ““+++” (>50 = +++)”.
For the substance “350 (NPSSTTTEF; listed as Homo sapiens) [compound 350]”, the Peptide exchange entry is recorded as ““+++” (>50 = +++)”.
Consider “121 (VPNQSSESL; listed as Homo sapiens) [compound 121]”, for which the Peptide exchange entry is ““+++” (>50 = +++)”.
In the case of “138 (SPMATTSTL; listed as Homo sapiens) [compound 138]”, the Peptide exchange result is listed as ““+++” (>50 = +++)”.
With “358 (SPSPVTSTL; listed as Homo sapiens) [compound 358]” the entry was ““+++” (>50 = +++)”.
With “381 (LPEQTPLAF; listed as Homo sapiens) [compound 381]”, the Peptide exchange entry is reported as ““++” (>20% = ++)”.
For “353 (SPAMTTPSL; listed as Homo sapiens) [compound 353]”, the Peptide exchange result is ““+++” (>50 = +++)”.
Regarding “390 (NPDLRRNVL; listed as Homo sapiens) [compound 390]”, the Peptide exchange result is ““+++” (>50 = +++)”.
Regarding “362 (SPVPVTSLF; listed as Homo sapiens) [compound 362]”, the Peptide exchange result is listed as ““+++” (>50 = +++)”.
For the substance “392 (KPIESTLVA; listed as Homo sapiens) [compound 392]”, the Peptide exchange entry was ““+++” (>50 = +++)”.
Take “140 (SPRTEASSAVL; listed as Homo sapiens) [compound 140]”: the Peptide exchange result was ““+++” (>50 = +++)”.
Regarding “305 (TPWAESSTKF; listed as Homo sapiens) [compound 305]”, the Peptide exchange entry is on record as ““++” (>20% = ++)”.
For the substance “133 (MPNLPSTTSL; listed as Homo sapiens) [compound 133]”, the Peptide exchange result is on record as ““+++” (>50 = +++)”.
Take “385 (SPALHIGSV; listed as Homo sapiens) [compound 385]”: the Peptide exchange entry is recorded as ““+++” (>50 = +++)”.
Regarding “365 (TPLATTQRFTY; listed as Homo sapiens) [compound 365]”, the Peptide exchange entry is ““++” (>20% = ++)”.
As for “378 (RPRSPAGQVAA; listed as Homo sapiens) [compound 378]”, the Peptide exchange result is ““+++” (>50 = +++)”.
With “355 (SPLVTSHIM; listed as Homo sapiens) [compound 355]” the entry was ““+++” (>50 = +++)”.
As to “296 (YPLRGSSI; listed as Homo sapiens) [compound 296]”, the Peptide exchange result was ““++” (>20% = ++)”.
“126 (KPGPEDKL; listed as Homo sapiens) [compound 126]”: the Peptide exchange result is ““++” (>20% = ++)”.
As for “340 (LPEISTRTM; listed as Homo sapiens) [compound 340]”, the Peptide exchange entry is given as ““++” (>20% = ++)”.
As to “32 (SPNKGTLSV; listed as Homo sapiens) [compound 32]”, the Peptide exchange entry is reported as ““+++” (>50 = +++)”.
To “372 (IPRNPPPTLL; listed as Homo sapiens) [compound 372]” belongs ““+++” (>50 = +++)”.
Regarding “314 (VPDQPHPEI; listed as Homo sapiens) [compound 314]”, the Peptide exchange result was ““+++” (>50 = +++)”.
With “124 (LPSDSHFKITF; listed as Homo sapiens) [compound 124]”, the Peptide exchange result is on record as ““+++” (>50 = +++)”.
On to “336 (HPKTESATPAAY; listed as Homo sapiens) [compound 336]”, for which the Peptide exchange result is reported as ““++” (>20% = ++)”.
As for “139 (SPQSMSNTL; listed as Homo sapiens) [compound 139]”, the Peptide exchange entry is given as ““+++” (>50 = +++)”.
To “320 (FPMSPVTSV; listed as Homo sapiens) [compound 320]” belongs ““+++” (>50 = +++)”.
For the substance “368 (VPTPVFPTM; listed as Homo sapiens) [compound 368]”, the Peptide exchange result is recorded as ““++” (>20% = ++)”.
For the substance “145 (SPSSPMSTF; listed as Homo sapiens) [compound 145]”, the Peptide exchange result was ““++” (>20% = ++)”.
Consider “324 (VPYRVVGL; listed as Homo sapiens) [compound 324]”, for which the Peptide exchange entry is on record as ““++” (>20% = ++)”.
To “354 (SPLPVTSLL; listed as Homo sapiens) [compound 354]” belongs ““+++” (>50 = +++)”.
Consider “347 (MPLTTGSQGM; listed as Homo sapiens) [compound 347]”, for which the Peptide exchange result is ““++” (>20% = ++)”.
As to “326 (VPSEIDAAF; listed as Homo sapiens) [compound 326]”, the Peptide exchange entry is given as ““++” (>20% = ++)”.
